Reference: article PMC5939987

Key:
Assay in all cases: SEC
[1] = target: recombinant motavizumab dimeric IgA1 (UniProt P01591)
[2] = target: recombinant motavizumab dimeric IgA2 (UniProt P01591)
[3] = target: recombinant palivizumab dimeric IgA1 (UniProt P01591)
[4] = target: recombinant palivizumab dimeric IgA2 (UniProt P01591)

Measured: sIgA formation

secretory component (domain or fragment)
100%: all assays above
